Laboratory results taken from PMC10341521, “Rapid Generation and Molecular Docking Analysis of Single-Chain Fragment Variable (scFv) Antibody Selected by Ribosome Display Targeting Cholecystokinin B Receptor (CCK-BR) for Reduction of Chronic Neuropathic Pain” (International Journal of Molecular Sciences, 2023).
Like-named read-outs stand apart in the source and are kept apart here.

T1: mouse CCK-B receptor peptide (custom 15-amino-acid extracellular mouse sequence) (Mus musculus, UniProt P56481)
T1 chain: CETPRIRGTGTRELE

T2: mouse CCK-B receptor peptide (custom 15-amino-acid extracellular mouse sequence) (mouse)
T2 chain: CETPRIRGTGTRELE


How the values were obtained:
[1] = target: T1, mouse CCK-B receptor peptide (custom …)
[2] = target: T2, mouse CCK-B receptor peptide (custom …); assay: BLI
[3] = target: T1, mouse CCK-B receptor peptide (custom …); assay: not stated
[4] = target: T1, mouse CCK-B receptor peptide (custom …); assay: BLI; Octet RED384 instrument; scFv77-2 and mouse CCK-B peptide; conditions: both partners purified
[5] = target: T1, mouse CCK-B receptor peptide (custom …); assay: ELISA; indirect ELISA of the scFvs on CCK-B receptor peptide, concentration-dependent; apparent affinity; methods in the supplementary section; conditions: both partners purified

Binder	binding result [1]	other results
CCK-BR_scFv93-1 (antibody, V domains shown) VH: QVQLKESGPGLVAPSQSLSITCTVSGFSLTSYGVHWVRQPPGKGLEWLGVIWAGGSTNYNSALMSRLSISKDNSKSQVFLKMNSLQTDDTAMYYCARGLRGAMDYWGQGTSVTVSS VL: DIVMTQSPSSLSVSAGEKVTMSCKSSQSLLASGNQNNYLAWHQQKPGRSPKMLIIWASTRESGVPDRFTGSGSGTDFTLTISSVQAEDVAVYYCQNDHSYPFTFGSGTKLEIK	binds	
CCK-BR_scFv11-2 (antibody, V domains shown) VH: QVQLKQSGAELVRPGSSVKISCKASGYAFTNYLIEWVKQRPGQGLEWIGQIYPGDGDTNYNGKFKGKATLTVDNSSSTAYMELRSLTSEDSAVYYCARAATWYYAMDYWGQGTSVTVSS VL: QIVLTQSPAIMSASPGEKVTITCSASSSVSYMHWFQQKPGTSPKLWIYSTSNLASGVPARFSGSGSGTSYSLTISSMEAEDAASYFCHQWSSYPWTFGGGTKLEIK	binds	
CCK-BR_scFv13-3 (antibody, V domains shown) VH: EVQLQQSGAELVKPGASVKMSCKASGYTFTSYWMHWVKQRPGQGLEWIGYINPSTGYTEYNQKFKDKATLTADKSSSTAYMQLSSLTSEDSAVYYCAGDNYGYWYFDVWGAGTTVTVSS VL: DIVMTQSPSSLSVSAGEKVTMSCKSSQSLLNSGNQKNYLAWYQQKPGQPPKLLIYGASTRESGVPDRFTGSGSGTDFTLTISSVQAEDLAVYYCQNDHSYPYTFGGGTKLEIK	binds	
CCK-B scFv77-2 antibody (scFv, V domains shown, VH of scFv77-2; 20-amino-acid flexible linker, printed as the formula [(G4S)4] and written out from it; VL of scFv77-2; Selected by ribosome display from a library of immunised mice; Apparent mass 26 kDa on the gel; The His-tag is named only for the Western blots of tissue after injection; Construct and methods are in the supplementary section; also called CCK-BR scFv 77-2; CCKBR scFv 77-2; …) VH: EVQLQQSGAELVRSGASVKLSCTASGFNIKDYYIHWVKQRPEQGLEWIGWIDPENGDTEYAPKFQGKATMTADTSSNTAYLQLSSLTSEDTAVYYCNAGGRFAYWGQGTLVTVSA VL: DIVMTQSPSSLSVSAGEKVTMSCKSSQSLLNSGNQKNYLAWYQQKPGQPPKLLIYGASTRESGVPDRFTGSGSGTDFTLTISSVQAEDLAVYYCQNDHSYPYTFGGGTKLEIK		koff [2]: 0.000381 s⁻¹; Kd [3]: 195 nM; Kd [4]: 17.9 nM
CCK-BR_scFv8-3 (antibody, V domains shown) VH: QVQLKESGAELAKPGASVKMSCKASGYTFTSYWMHWVKQRPGQGLEWIGYINPSTGYTEYNQKFKDKATLTADKSSSTAYMQLSSLTSEDSAVYYCARDYGSSFDYWGQGTTLTVSS VL: DVVMTQTPLTLSVTIGQPASISCKSSQSLLDSGNQKNYLAWYQQKPGQPPKLLIYGASTRESGVPDRFTGSGSGTDFTLTISSVQAEDLAVYYCQNDHSYPYTFGGGTKLEIK	binds	
CCK-B scFv134-1 antibody (scFv, V domains shown, VH of scFv134-1; 20-amino-acid flexible linker, printed as the formula [(G4S)4] and written out from it; VL of scFv134-1; One of the panel of 7 anti-CCK-B receptor scFvs; Construct and methods are in the supplementary section; source: E. coli cytoplasm (pET32a expression vector), purified) VH: EVQLQQSGAELVKPGASVKMSCKASGYTFTDYWMHWVKQRPGQGLEWIGAIDTSDSYTSYNQKFKGKATLTVDKSSSTAYIQLSSLTSEDSAVYYCARSEGYLPFDYWGQGTTLTVSS VL: DVVMTQTPLSLPVSFGDQVSISCRSSQSLANSYGNTYLSWYLHKPGQSPQLLIYGISNRFSGVPDRFSGSGSGTDFTLKISTIKPEDLGMYYCLQGTHQPRTFGGGTKLEIK		binding result [5]: binds
